Experimental data published in US11485776B2, “Antibodies against infectious diseases” (priority 2015, dated 2022).
“Also recorded” adds a separate entry of the source.

Assays:
[1] = molecular target: T1, ENO1 protein expressed in cell lysates of C. albicans (Candida albicans, UniProt P30575); test: Western blot on total cell lysate of C. albicans; assay type: binding
T1 construct: endogenous in cells; host or cells: C. albicans SC 5314 and clinical isolates CA6-17, CA7-26, CA7-3, CA10-50, CA7-30, CA10-65
Text: (A) The total cell lysates of 5 Candida spp. were visualized on SDS-PAGE (left). After transferred onto the NC membranes, they were probed with purified anti-CaENO1 from 7th immunized chicken (1:3,000) (middle), or with CaS1 scFv (right) as described in material and methods. Lanes 1-6 in (A) contained the total cell lysates of C. albicans, C. krusei, C. tropicalis, C. parapsilosis and C. glabrate and purified recombinant CaENO1, respectively. […] (C) Total cell lysate from FLU^R and FLU^s and C. tropicalis (lanes 1-5 represent CT6-29, CT11-52, CT6-50, CT12-54, BCRC20520, respectively) by SDS-PAGE (left) and probed with CaS1 scFv by Western blot (right). (D) The purified ENO1 proteins of C. albicans, S. pneumonia, S. aureus, mouse and human were visualized on SDS-PAGE (left). After transferred onto the NC membranes, they were probed with purified CaS1 scFv (right) as described. Lane M contained protein markers. […]
(§1) This CaS1 scFv was evaluated for its binding activity to different species of Candida. Five common strains of Candida were obtained, total lysate of five species Candida were analyzed on SDS-PAGE (FIG. 6A left) and subsequent Western blot.

CaENO1 [2] = molecular target: T2, CaENO1 (Candida albicans, UniProt P30575); test: Western blot on purified ENO1 protein of C. albicans; assay type: binding
T2 construct: using full-length CaENO1 (1323 bp) as template; His (N); made in house; host or cells: E. coli BL21
Text: (§2) (A) The total cell lysates of 5 Candida spp. were visualized on SDS-PAGE (left). After transferred onto the NC membranes, they were probed with purified anti-CaENO1 from 7th immunized chicken (1:3,000) (middle), or with CaS1 scFv (right) as described in material and methods. Lanes 1-6 in (A) contained the total cell lysates of C. albicans, C. krusei, C. tropicalis, C. parapsilosis and C. glabrate and purified recombinant CaENO1, respectively. […] (C) Total cell lysate from FLU^R and FLU^s and C. tropicalis (lanes 1-5 represent CT6-29, CT11-52, CT6-50, CT12-54, BCRC20520, respectively) by SDS-PAGE (left) and probed with CaS1 scFv by Western blot (right). (D) The purified ENO1 proteins of C. albicans, S. pneumonia, S. aureus, mouse and human were visualized on SDS-PAGE (left). After transferred onto the NC membranes, they were probed with purified CaS1 scFv (right) as described. Lane M contained protein markers.
Briefly, C. albicans alpha-enolase genes were constructed in pQE30 plasmids to form pQE30-CaENO1 vector, and then the resulting vectors were transformed with E. coli BL21 cells. The bacterial culture was grown in 10 ml LB medium containing ampicillin ([…]) at 37° C. overnight, diluted 10-fold in the same LB medium and further grown until the OD600 reached between 0.6 and 1.0. […]

[3] = test system: ENO1 proteins on Candida spp. (C. krusei); assay type: binding
Text: as §2
(§3) To detect the presence of ENO1 proteins, the purified recombinant ENO1 protein or cell lysates of five Candida spp were subjected to SDS-PAGE analysis, transferred onto nitrocellulose membranes (Amersham Biosciences, UK) and then blocked with 5% skim milk in TBST for 1 hr. The anti-CaENO1 IgY from chicken after 7th immunization (1:3,000) or purified CaS1 scFv antibody (1 μg/ml) were added and incubated for 1 hr at room temperature. After vigorous washings, horseradish peroxidase (HRP)-conjugated polyclonal donkey anti-chicken IgY antibodies (1:3,000) (Bethyl Laboratories, Montgomery, Tex., USA) were added and incubated for an additional 1 hr for detecting the bound IgY antibodies. However, goat anti-chicken light chain antibodies (1:3,000) (Bethyl Laboratories, Montgomery, Tex., USA), followed by HRP-conjugated donkey anti-goat IgG antibodies (Jackson ImmunoResearch, USA) were used for detecting the bound scFv antibodies. After washings as above, the membranes were developed with diaminobenzidine (DAB) or ECL substrate. The ImageQuant LAS4500 was used for ECL intensity detection.
as §1

[4] = test system: ENO1 proteins on Candida spp. (C. tropicalis); assay type: binding
Text: as §2, §3, §1

[5] = test system: ENO1 proteins on Candida spp. (C. parapsilosis); assay type: binding
Text: as §2, §3, §1

hENO1 = molecular target: T3, hENO1 (Homo sapiens, UniProt P06733); test: Western blot on purified human ENO1 protein; assay type: binding
T3 construct: His; made in house; host or cells: E. coli BL21 (by 'in the same way')
Text: Lane M contained protein markers.
The ImageQuant LAS4500 was used for ECL intensity detection.

CaENO1 [6] = molecular target: T2, CaENO1; assay type: binding, C. albicans; details: free form vs fixed form recombinant CaENO1
Protocol: (A) Purified CaS1 scFv was used to recognize recombinant CaENO1 protein. The CaS1 scFv were used as primary antibody with series dilution. The goat anti-chicken light chain IgG was used as secondary antibody. The HRP conjugated donkey anti-goat IgG was used to decet. (B) OD value was calculated into percentage. […] The goat anti-chicken light chain IgG was used as secondary antibody. The HRP conjugated donkey anti-goat IgG was used to detect. (D) We calculated OD value into percentage.

[7] = test system: binding of C. albicans cells to human oral keratinocyte OECM-1 cells; test: Adhesion assay of C. albicans to OECM-1 cells; assay type: cell-based; details: 50 μg and 100 μg, vs PBS control
Protocol: C. albicans were mixed with 1×PBS, 50 ug or 100 ug CaS1 scFv at 37° C. for 1 hr and added into OECM-1 cells in culture wells as described in the text. After being washed, cells attached to C. albicans were detected by adding HRP-conjugated anti-C. albicans antibodies.
Cell adhesion assay was performed using human oral epidermal cells (OECM-1) (XXX). C. albicans (1×10^6 cfu) were pre-incubated with CaS1 scFv antibodies ([…]) at 37° C. for 1 hr. After incubation, the mixtures were two-fold diluted and added onto 10^4 OECM-1 cells cultured in 96-well plates. The plates were further incubated at 4° C. for 2 hrs. After being washed three times with 1×PBS, the plates were fixed with 10% formaldehyde. After being washed as above, the wells were blocked with skim milk for 1 hr. Thereafter, rabbit anti-C. albicans antibodies (1:3,000, Bethyl, USA) were added and incubated for another 1 hr, followed by adding the HRP-conjugated anti-rabbit antibodies (1:3,000, Bethyl, USA). Washings as above were always carried out between steps. TMB was used for color development, which was stopped with 1 N HCl. The intensity of the color was measured at 450 nm on an ELISA plate reader.
C. albicans cells (1×10^6) were treated with 50 μg and 100 μg of scFv CaS1, respectively, and the resulting mixtures were added to human oral keratinocyte OECM-1 cells to test the binding ability of C. albicans cells to OECM-1 cells.

T1 sequence (P30575 whole entry): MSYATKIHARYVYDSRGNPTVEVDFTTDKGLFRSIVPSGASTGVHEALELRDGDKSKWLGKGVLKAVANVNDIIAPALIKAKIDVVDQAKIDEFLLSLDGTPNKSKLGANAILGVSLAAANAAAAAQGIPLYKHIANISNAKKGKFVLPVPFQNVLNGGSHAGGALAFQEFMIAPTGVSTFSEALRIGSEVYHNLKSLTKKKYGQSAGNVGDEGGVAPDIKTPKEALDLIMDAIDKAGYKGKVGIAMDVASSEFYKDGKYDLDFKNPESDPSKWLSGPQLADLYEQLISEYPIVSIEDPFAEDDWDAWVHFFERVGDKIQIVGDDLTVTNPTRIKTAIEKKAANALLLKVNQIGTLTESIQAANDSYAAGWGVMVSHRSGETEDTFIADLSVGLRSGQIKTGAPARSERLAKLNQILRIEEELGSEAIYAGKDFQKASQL
T2 sequence (P30575 whole entry): as above
T3 sequence (P06733 whole entry): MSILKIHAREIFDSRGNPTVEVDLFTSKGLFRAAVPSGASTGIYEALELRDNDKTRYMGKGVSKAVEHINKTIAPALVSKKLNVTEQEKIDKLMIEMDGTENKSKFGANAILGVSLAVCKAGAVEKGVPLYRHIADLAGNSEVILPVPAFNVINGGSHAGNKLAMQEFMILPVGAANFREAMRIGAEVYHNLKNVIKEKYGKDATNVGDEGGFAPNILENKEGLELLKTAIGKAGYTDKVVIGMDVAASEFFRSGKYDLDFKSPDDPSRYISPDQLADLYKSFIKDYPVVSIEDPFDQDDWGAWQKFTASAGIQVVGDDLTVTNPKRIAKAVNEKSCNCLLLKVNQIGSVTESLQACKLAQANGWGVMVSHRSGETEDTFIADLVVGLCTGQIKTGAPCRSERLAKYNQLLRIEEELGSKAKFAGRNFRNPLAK

B1: CaS1 scFv: anti-CaENO1 scFv monoclonal antibody from chicken phage library; light chain SEQ ID NO:11, heavy chain SEQ ID NO:12 (antibody, V domains shown)
VH: TVTLDESGGGLQTPRGALSLVCKASGFTFIDYGMQWVRQAPGKGLEWVAGIGSSGSSTNYGAAVKGRATISRDDGQSTVRLQLNNLRAEDTGTYYCAKSAGGYCVNGAGCNGGSIDAWGHGTEVIVSS
VL: ALTQPSSVSANLGGTVKITCSGGSGSYGWYQQKSPGSAPVTVIYSNNQRPSNIPSRFSGSPSGSTGTLTITGVQADDEAVYFCGSRDSSYVGVFGAGTTLTVL
modifications: scFv linker; amino acid sequence comprised in a heavy chain of an anti-CaENO1 scFv monoclonal antibody (CaS1); amino acid sequence comprised in a light chain of an anti-CaENO1 scFv monoclonal antibody (CaS1)
- Binding to fluconazole resistance and susceptible C. albicans from clinic (Western blot) [1]: binds; also recorded: can bind
- Binding to ENO1 in total cell lysate of C. albicans (Western blot) ([1]; C. albicans SC 5314 lysate): specifically recognized; also recorded: reacted
- Binding to purified CaENO1 (Western blot) (CaENO1 [2]): bind and recognizes
- Binding to ENO1 in total cell lysate of C. krusei (Western blot) [3]: cannot react
- Binding to ENO1 in total cell lysate of C. tropicalis (Western blot) [4]: specifically recognized; also recorded: reacted
- Binding to fluconazole resistance and susceptible C. tropicalis from clinic (Western blot) [4]: binds; also recorded: can bind
- Binding to ENO1 in total cell lysate of C. parapsilosis (Western blot) [5]: cannot react
- Binding to fluconazole resistance and susceptible C. parapsilosis from clinic (Western blot) [5]: not
- Binding to purified hENO1 (Western blot) (hENO1): very little; also recorded: weak cross reactivity
- KD by competitive ELISA (CaENO1 [6]): 4.45 µg/mL
- Kd (CaENO1 [6]; read-out: KD by competitive ELISA): 89 nM
- Binding of C. albicans cells to OECM-1 cells ([7]; listed as CaS1): inhibited its adherence
- Binding of C. albicans cells to OECM-1 cells ([7]; listed as CaS1 ScFv): inhibited
- Binding of C. albicans cells to OECM-1 cells ([7]; listed as scFv CaS1): significantly reduced
